The values below come from publication PMC12302606, “The SlDOF9‐SlSWEET17 Module: a Switch for Controlling Sugar Distribution Between Nematode Induced Galls and Roots in Tomato”.

The data set concerns the target SlDOF9-His (Solanum lycopersicum, UniProt A0A3Q7FC45 1-258). Nature of the data set: EMSA (supershift); anti-His antibody; Biotin-labeled and unlabeled probes with purified protein and anti-His antibody, room temperature, 30 min; buffer from kit, salt and pH not stated. The following applies: protein: recombinant, tags: C-terminal His, blunt.

Numbering of substitutions follows the chain as printed.

Chain of SlDOF9-His (A0A3Q7FC45 entry or part of it): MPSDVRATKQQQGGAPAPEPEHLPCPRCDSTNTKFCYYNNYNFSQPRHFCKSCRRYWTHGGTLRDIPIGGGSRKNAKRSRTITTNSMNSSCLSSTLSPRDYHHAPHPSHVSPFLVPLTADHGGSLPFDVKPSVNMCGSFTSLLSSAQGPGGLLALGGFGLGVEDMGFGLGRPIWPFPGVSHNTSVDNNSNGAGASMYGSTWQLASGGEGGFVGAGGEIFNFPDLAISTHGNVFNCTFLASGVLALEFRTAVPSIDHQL

B1: TS1 (dsDNA)
DNA 1: AAAAAGTGATAAGAAAAAACATCCAAGCCCT
DNA 2: AGGGCTTGGATGTTTTTTCTTATCACTTTTT
Turning to B1, for the setting “label: biotin (labeled probe)”, the binding result is reported as “binds”.

B2: TS1m (dsDNA)
DNA 1: B1 DNA 1 with A3C, A5T
DNA 2: B1 DNA 2 with T27A, T29G
Turning to B2, the binding result is on record as “no binding”.

B3: TS2 (dsDNA)
DNA 1: AGCCAGAAAAGAAAATACAATAATTCTCATT
DNA 2: AATGAGAATTATTGTATTTTCTTTTCTGGCT
As to B3, the binding result (label: biotin (labeled probe)) was “binds”.
